Reference: patent US20040009530A1 (ZYOMYX, published 2004)

target: T1, human chorionic gonadotropin (human, UniProt P01215 25-116; P0DN86 21-165, biotinylated using an NHS-SS-biotin reagent (sites not given)); experiment: affinity ELISA, hCG immobilized, serial dilution of engineered protein
T1 construct: The target was biotinylated and immobilized on Neutravidin- or Streptavidin-coated strip plates; also called hCG
From the text: A total of 192 plaques were screened from the PEG precipitated and non-PEG precipitated eluted phage of round three (FIG. 9). Screening at the phage and protein level was similar to that for the HP6054 selections. The screen identified three engineered chaperonin proteins that were solubly expressed in E. coli and could bind hCG. Both the PEG-precipitated and non-PEG-precipitated selections gave similar results. In these affinity ELISA assays, the engineered chaperonin was serially diluted and the ELISA signal was plotted as a function of engineered chaperonin concentration to determine EC₅₀s, as above. The following EC₅₀ values for the three engineered library proteins was measured: […]

T1 sequence (P01215 25-116, chain 1 of 2, other chains not shown): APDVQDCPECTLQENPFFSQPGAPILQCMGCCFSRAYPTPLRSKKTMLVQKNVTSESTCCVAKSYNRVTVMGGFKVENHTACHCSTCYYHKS

| EC50 | Binder |
| --- | --- |
| 5.4 µM | engineered chaperonin protein SP4-1 (designed binder, Protein-level screening was 'similar to that for the HP6054 selections', that is, with a FLAG-tag vector and anti-FLAG-HRP detection; not shown: FLAG-tag from the expression vector upstream of the insertion site) DDDRIPASGIVIDRVGRDSNMPHVVKNAKIALIDSALEIKKTEIEAKVQISDPSKIQDFLNQETNTFKQMVEKIKKSGANVVLCADDYAHVAYDYLAKEGIYAVGYVTESDMEKLAKATGAKIVTDLDDLTPSVLGEAETVEERPWGNNKETYVMGCKGSVSHHHHHHSEQKLISEEDLLRLE |
| 0.63 µM | engineered chaperonin protein SP4-5 (designed binder, also called engineered protein clone SP4-5; not shown: FLAG-tag from the expression vector upstream of the insertion site) DDDRIPASGIVIARPGESAFMPDVVKNAKIALIDSALEIKKTEIEAKVQISDPSKIQDFLNQETNTFKQMVEKIKKSGANVVLCNGDQADVAYDYLAKEGIYAVHFVDESDMEKLAKATGAKIVTDLDDLTPSVLGEAETVEERKYTEGVPTYVMGCKGSVSHHHHHHSEQKLISEEDLLRLE |
| 48 µM | engineered chaperonin protein SP4-2 (designed binder, not shown: FLAG-tag from the expression vector upstream of the insertion site) DDDRIPASGIVIVGHNKVPSMPRVVKNAKIALIDSALEIKKTEIEAKVQISDPSKIQDFLNQETNTFKQMVEKIKKSGANVVLCGYKNLTVAYEYLAKEGIYAVYHVDESDMEKLAKATGAKIVTDLDDLTPSVLGEAETVEERGTANAPATYVMGCKGSVSHHHHHHSEQKLISEEDLLRLE |

target: T1, human chorionic gonadotropin; experiment: affinity ELISA, hCG immobilized, serial dilution of engineered rubredoxin
From the text: The method used to identify engineered rubredoxin proteins that bind to human chorionic gonadotropin (hCG) were the same as the method used to identify chaperonin proteins that bind to hCG described in Section 6.9.6, above. The method identified three engineered rubredoxin proteins that could bind hCG. In the affinity ELISA assays, the engineered rubredoxin was serially diluted and the ELISA signal was plotted as a function of engineered rubredoxin concentration to determine EC₅₀s, as above. The following EC₅₀ values for the three library proteins was measured: […]

| EC50 | Binder |
| --- | --- |
| 81 nM | engineered rubredoxin protein G3 (designed binder, Engineered Pyrococcus furiosus rubredoxin) MAKWVCKICGYIYDEDAGFVEYYGHPNISPGTKFEELSRYVDGWTCPICSYGMPIFEKLED |
| 4000 nM | engineered rubredoxin protein D7 (designed binder, Engineered Pyrococcus furiosus rubredoxin; No tags are stated for the assayed construct) MAKWVCKICGYIYDEDAGEDPGHRSRYISPGTKFEELTTGWTCPICRCTNSTTSTNCFEKLED |
| 35 nM | engineered rubredoxin protein F3 (designed binder, Engineered Pyrococcus furiosus rubredoxin; No tags are stated for the assayed construct) MAKWVCKICGYIYDEDAGFVEYYDDGVISPGTKFEELHTAWTCPICSCTYNPFEKLED |
